Common to all, as to experiment: cell-based or functional assay
In experiment [1] the target is HIV-1 92TH021 envelope glycoprotein (Env) on pseudovirus (HIV-1).
The target in experiment [2] is HIV-1 Env of pseudovirus MGRM-Chronic-B-011 (HIV-1).
The target of experiment [3] is HIV-1 Env of pseudovirus MGRM-AE-001 (clade CRF01_AE) (HIV-1).
Experiment [4] has as its target HIV-1 Env of isolate 92BR020, clade B, on pseudovirus (HIV-1).
Experiment [5] concerns the target HIV-1 Env of pseudovirus MGRM-AG-001 (clade CRF_AG) (HIV-1).
The target in experiment [6] is HIV-1 Env of pseudovirus MGRM-AE-004 (clade CRF01_AE) (HIV-1).
Experiment [7] concerns the target HIV-1 JRCSF envelope glycoprotein (Env) on pseudovirus (HIV-1) (UniProt P20871).
Experiment [8] addresses HIV-1 Env of pseudovirus MGRM-F1-004 (HIV-1).
The target in experiment [9] is HIV-1 Env of pseudovirus MGRM-AG-006 (clade CRF_AG) (HIV-1).
Experiment [10] has as its target HIV-1 envelope glycoprotein (Env) of isolate MGRM-A-001, clade A (HIV-1).
Experiment [11] concerns the target HIV-1 Env of isolate 6535.3 (Acute), clade B, on pseudovirus (HIV-1).
Experiment [12] deals with HIV-1 Env of isolate TRJ0.58 (Acute), clade B, on pseudovirus (HIV-1).
Experiment [13] has as its target HIV-1 Env of pseudovirus MGRM-AE-006 (clade CRF01_AE) (HIV-1).
The target of experiment [14] is HIV-1 envelope glycoprotein (Env) of isolate 94UG103, clade A (HIV-1).
For experiment [15], the target named is HIV-1 Env of pseudovirus MGRM-AG-011 (clade CRF_AG) (HIV-1).
For experiment [16], the target named is HIV-1 Env of isolate MGRM-Chronic-B-001, clade B, on pseudovirus (HIV-1).
Experiment [17] concerns the target HIV-1 92RW020 envelope glycoprotein (Env) on pseudovirus (HIV-1).
The target of experiment [18] is HIV-1 Env of pseudovirus MGRM-F1-022 (HIV-1).
Experiment [19] addresses HIV-1 envelope glycoprotein (Env) of isolate 92RW026, clade A (HIV-1).
Experiment [20] addresses HIV-1 Env of isolate JRCSF (subtype B) (HIV-1) (UniProt P20871).
In experiment [21] the target is HIV-1 Env of isolate APV-13 (HIV-1).
Experiment [22] has as its target HIV-1 Env of isolate MGRM-Chronic-B-017 (subtype B) (HIV-1).
The target of experiment [23] is HIV-1 Env of isolate MGRM-A-002 (HIV-1).
Experiment [24] concerns the target HIV-1 envelope glycoprotein (Env) of isolate MGRM-C-019 (HIV-1).
Experiment [25] addresses HIV-1 Env of isolate MGRM-AE-007 (subtype AE) (HIV-1).
In experiment [26] the target is HIV-1 Env of isolate VLGCA1 (subtype A) (HIV-1).
Experiment [27] deals with HIV-1 Env of isolate MG RM-D-020 (HIV-1).
Experiment [28] concerns the target HIV-1 envelope glycoprotein (Env) of isolate MGRM-C-027 (HIV-1).
The target in experiment [29] is HIV-1 Env of isolate JR-CSF (pseudovirus) (HIV-1) (UniProt P20871).
For experiment [30], the target named is HIV-1 envelope glycoprotein (Env) of isolate MGRM-C-028 (HIV-1).
Experiment [31] deals with HIV-1 Env of isolate 92TH021 (pseudovirus) (HIV-1).
The target of experiment [32] is HIV-1 Env of isolate MGRM-A-006 (HIV-1).
The target in experiment [33] is HIV-1 Env of isolate 93WR029 (HIV-1).
In experiment [34] the target is HIV-1 Env of isolate 92BR020 (HIV-1).
Experiment [35] has as its target HIV-1 Env of isolate MG RM-D-002 (HIV-1).

5329_C19 (PGT-136) (antibody), sequence (VH): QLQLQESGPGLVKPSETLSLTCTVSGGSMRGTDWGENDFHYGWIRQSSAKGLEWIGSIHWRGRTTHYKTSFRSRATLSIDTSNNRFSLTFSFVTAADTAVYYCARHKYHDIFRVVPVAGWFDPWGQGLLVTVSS
5329_C19 (PGT-136) (antibody), sequence (VL): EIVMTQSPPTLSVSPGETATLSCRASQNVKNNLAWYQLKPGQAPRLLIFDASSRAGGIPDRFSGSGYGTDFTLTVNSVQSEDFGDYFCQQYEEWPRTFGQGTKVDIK
5345_I01 (PGT-137) (antibody), sequence (VH): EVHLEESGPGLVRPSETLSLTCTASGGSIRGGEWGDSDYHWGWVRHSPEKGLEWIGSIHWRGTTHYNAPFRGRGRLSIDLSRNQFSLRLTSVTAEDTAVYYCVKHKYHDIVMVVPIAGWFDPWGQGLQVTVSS
5345_I01 (PGT-137) (antibody), sequence (VL): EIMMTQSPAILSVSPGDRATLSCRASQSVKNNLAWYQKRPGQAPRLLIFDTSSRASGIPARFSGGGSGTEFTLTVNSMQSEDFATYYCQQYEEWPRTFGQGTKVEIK

For the substance 2F5 (antibody), the IC50, pseudovirus neutralization in experiment [1] amounted to 1.51 µg/mL; in experiment [7], 3.36 µg/mL; in experiment [17], 3.37 µg/mL. In addition, the IC50 (µg/ml), pseudovirus neutralization was 0.81 µg/mL in experiment [2]; greater than 50 µg/mL in [4]; 4.31 µg/mL in [8]; greater than 50 µg/mL in experiment [10]; 2.76 µg/mL in [11]; greater than 50 µg/mL in [12]. In addition, the IC50 (µg/ml), pseudovirus neutralization came out at 1.92 µg/mL in experiment [14], 0.55 µg/mL in [16], 1.26 µg/mL in [18] and 8.63 µg/mL in experiment [19]. For the same substance, the IC50 in experiment [3] was 0.29 µg/mL; in experiment [5] it was 0.75 µg/mL; in [6] it was 0.98 µg/mL; in experiment [9], 0.85 µg/mL; in experiment [13] it was 0.18 µg/mL; in [15], greater than 50 µg/mL. In [7], this substance came in with an IC90 (pseudovirus neutralization) of 25.3 µg/mL.
Take 2G12 (antibody): the IC50, pseudovirus neutralization in experiment [1] is greater than 50 µg/mL; in experiment [7], 0.66 µg/mL; in experiment [17] it was 0.56 µg/mL. In addition, the IC50 (µg/ml), pseudovirus neutralization in experiment [2] is greater than 50 µg/mL; in experiment [4], 4.84 µg/mL; in experiment [8] it was greater than 50 µg/mL; in experiment [10] it was greater than 50 µg/mL; in experiment [11] it was 3.85 µg/mL; in experiment [12] it was greater than 50 µg/mL. In addition, the IC50 (µg/ml), pseudovirus neutralization in experiment [14] is 48.1 µg/mL; in experiment [16] it was 0.08 µg/mL; in experiment [18], greater than 50 µg/mL; in experiment [19], 17.2 µg/mL. For the same substance, the IC50 in experiment [3] was greater than 50 µg/mL; in experiment [5], 0.69 µg/mL; in [6], greater than 50 µg/mL; in experiment [9] it was 3.92 µg/mL; in [13], greater than 50 µg/mL; in experiment [15], greater than 50 µg/mL. This substance also had an IC90 (pseudovirus neutralization) in experiment [7] of 5.38 µg/mL.
Turning to 5114_A19 (PGT-128) (antibody), the figures for the IC50 neutralization in experiment [20] and in experiment [22] were 0.003 µg/mL and greater than 50 µg/mL, respectively. Moreover, the neutralization IC50 came out at 0.008 µg/mL in [21] and 0.009 µg/mL in [34]. Moreover, the results for the IC50 in experiment [23], in experiment [32] and in experiment [33] were 0.149 µg/mL, greater than 50 µg/mL and greater than 50 µg/mL, respectively. The IC50 (µg/mL), pseudovirus neutralization was 0.01 µg/mL in [24]; greater than 50 µg/mL in experiment [25]; 0.838 µg/mL in experiment [26]; 0.011 µg/mL in [27]; 0.081 µg/mL in [28]; 14.4 µg/mL in experiment [30]. The substance further showed an IC50 (µg/mL), pseudovirus neutralization in [35] of 0.011 µg/mL. Moreover, the Polyclonal Transfectant Neutralization Index came to 136 in experiment [29] and 10 in experiment [31]. Besides, the Primary Neutralization Index (B cell culture supernatant) in [29] stood at 77.5; in [31], 6.6.
Take 5136_H01 (PGT-131) (antibody): the figures for the IC50 neutralization in [20] and in experiment [22] were 0.029 µg/mL and greater than 50 µg/mL, respectively. Moreover, the figures for the neutralization IC50 in experiment [21] and in experiment [34] were 0.189 µg/mL and 6.16 µg/mL, respectively. For the same substance, the IC50 in experiment [23], in experiment [32] and in experiment [33] was greater than 50 µg/mL throughout. The IC50 (µg/mL), pseudovirus neutralization in [24] was 0.021 µg/mL; in experiment [25] it was 0.026 µg/mL; in experiment [26], greater than 50 µg/mL; in experiment [27], greater than 50 µg/mL; in [28] it was 0.065 µg/mL; in experiment [30], greater than 50 µg/mL. Further, the IC50 (µg/mL), pseudovirus neutralization in experiment [35] is 11.2 µg/mL. The Primary Neutralization Index (B cell culture supernatant) in experiment [29] was found to be 6.2; in experiment [31], 354.
Turning to 5147_N06 (PGT-130) (antibody), the IC50 neutralization in experiment [20] is 0.01 µg/mL; in experiment [22] it was greater than 50 µg/mL. Also, the neutralization IC50 was found to be 0.052 µg/mL in experiment [21] and 1.4 µg/mL in experiment [34]. Also, the IC50 in experiment [23] was 0.01 µg/mL; in [32] it was greater than 50 µg/mL; in experiment [33], 34.3 µg/mL. The IC50 (µg/mL), pseudovirus neutralization in experiment [24] is 0.01 µg/mL; in [25], 0.083 µg/mL; in [26] it was greater than 50 µg/mL; in experiment [27] it was 24.7 µg/mL; in experiment [28], 0.008 µg/mL; in experiment [30], greater than 50 µg/mL. The substance also showed an IC50 (µg/mL), pseudovirus neutralization in experiment [35] of 0.869 µg/mL. The values for the Polyclonal Transfectant Neutralization Index in experiment [29] and in [31] were 1.24 and 4.2, respectively. The Primary Neutralization Index (B cell culture supernatant) in experiment [29] turned out to be 19.3; in experiment [31], 538.
For 5329_C19 (PGT-136) (antibody), the IC50 neutralization in experiment [20] and in experiment [22] was greater than 50 µg/mL each time. For the same substance, the figures for the neutralization IC50 in experiment [21] and in [34] were greater than 50 µg/mL and 8.61 µg/mL, respectively. Besides, the IC50 in [23], in experiment [32] and in [33] was greater than 50 µg/mL each time. In addition, the IC50 (µg/mL), pseudovirus neutralization was 20.1 µg/mL in [24]; greater than 50 µg/mL in experiment [25]; greater than 50 µg/mL in experiment [26]; greater than 50 µg/mL in [27]; greater than 50 µg/mL in [28]; 33.7 µg/mL in experiment [30]. In experiment [35], this substance came in with an IC50 (µg/mL), pseudovirus neutralization greater than 50 µg/mL. The substance also gave a Primary Neutralization Index (B cell culture supernatant) in [29] of 0.9.
Take 5343_B08 (PGT-135) (antibody): the IC50 neutralization in experiment [20] is 0.131 µg/mL; in [22], greater than 50 µg/mL. Moreover, the neutralization IC50 in experiment [21] amounted to 0.716 µg/mL; in [34], 0.073 µg/mL. Further, the IC50 in [23], in experiment [32] and in experiment [33] was greater than 50 µg/mL throughout. Besides, the IC50 (µg/mL), pseudovirus neutralization in experiment [24] is 0.264 µg/mL; in [25], greater than 50 µg/mL; in experiment [26], greater than 50 µg/mL; in [27], greater than 50 µg/mL; in experiment [28] it was greater than 50 µg/mL; in [30], 1.47 µg/mL. In [35], this substance showed an IC50 (µg/mL), pseudovirus neutralization greater than 50 µg/mL. In addition, the Primary Neutralization Index (B cell culture supernatant) in experiment [29] turned out to be 1.8.
Consider 5345_I01 (PGT-137) (antibody), for which the IC50 neutralization in [20] and in [22] was greater than 50 µg/mL in each case. Also, the neutralization IC50 was greater than 50 µg/mL in experiment [21] and 7.81 µg/mL in experiment [34]. In addition, the IC50 in [23], in experiment [32] and in experiment [33] was greater than 50 µg/mL in each case. In addition, the IC50 (µg/mL), pseudovirus neutralization in experiment [24], in experiment [25], in experiment [26], in [27], in experiment [28] and in experiment [30] was greater than 50 µg/mL each time. Further, in experiment [35], the IC50 (µg/mL), pseudovirus neutralization was greater than 50 µg/mL. The same substance registered a Primary Neutralization Index (B cell culture supernatant) in experiment [29] of 1.1.

Broadly, the IC50 is the concentration that gives 50% inhibition.

The values above are taken from patent US20250320281A1.
